Experimental data from PMC3314614, “The Tandem CARDs of NOD2: Intramolecular Interactions and Recognition of RIP2” (PLoS ONE, 2012).

Experiments:
[1] = biological target: NOD2-CARDb (isolated) (human) (UniProt Q9HC29); experiment: ITC; CARDa in the syringe, CARDb in the cell; 30°C; 50 mM Tris-HCl, 50 mM NaCl, 2 mM DTT, pH 7.5
[2] = biological target: NOD2-CARDb (isolated) (human) (UniProt Q9HC29); experiment: ITC; CARDa in the syringe, CARDb in the cell; 30°C; 50 mM Tris-HCl, 250 mM NaCl, 2 mM DTT, pH 7.5
[3] = biological target: NOD2-CARDb (isolated) (human) (UniProt Q9HC29); experiment: ITC; CARDa in the syringe, CARDb in the cell; 30°C; 50 mM Tris-HCl, 500 mM NaCl, 2 mM DTT, pH 7.5
[4] = biological target: NOD2-CARDb (isolated) (human) (UniProt Q9HC29); experiment: ITC; CARDa in the syringe, CARDb in the cell; 30°C; 50 mM Tris-HCl, 1000 mM NaCl, 2 mM DTT, pH 7.5
[5] = biological target: NOD2-CARDb (isolated) (human) (UniProt Q9HC29); experiment: ITC; CARDa in the syringe, CARDb in the cell; 18°C; 50 mM Tris-HCl, 100 mM NaCl, 2 mM DTT, pH 7.5; one-site model
[6] = biological target: NOD2-CARDb (isolated) (human) (UniProt Q9HC29); experiment: ITC; CARDa in the syringe, CARDb in the cell; 25°C; 50 mM Tris-HCl, 100 mM NaCl, 2 mM DTT, pH 7.5; one-site model
[7] = biological target: NOD2-CARDb (isolated) (human) (UniProt Q9HC29); experiment: ITC; CARDa in the syringe, CARDb in the cell; 30°C; 50 mM Tris-HCl, 100 mM NaCl, 2 mM DTT, pH 7.5; one-site model
[8] = biological target: NOD2-CARDb (isolated) (human) (UniProt Q9HC29); experiment: ITC; CARDa in the syringe, CARDb in the cell; 25°C; 50 mM Tris-HCl, 100 mM NaCl, 2 mM DTT, pH 7.5; one-site model; remark: listed apart in the source
[9] = biological target: NOD2-CARDb (isolated) (human) (UniProt Q9HC29); experiment: AUC; sedimentation velocity; individual samples and a 1:1 mixture of CARDa and CARDb; optical density 0.5 at 280 nm; SedFit
Pop1 PYD (Homo sapiens) = Pop1 PYD (Homo sapiens) (UniProt Q8WXC3); conditions: cited from earlier work
Pop1 PYD (Homo sapiens), sequence (Q8WXC3 whole entry): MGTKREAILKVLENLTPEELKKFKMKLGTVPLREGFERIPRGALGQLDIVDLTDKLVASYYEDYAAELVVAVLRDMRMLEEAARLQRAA

[10] = biological target: Tube DD (Drosophila melanogaster) (UniProt P22812); conditions: cited from earlier work
Tube DD (Drosophila melanogaster), sequence (P22812 27-152): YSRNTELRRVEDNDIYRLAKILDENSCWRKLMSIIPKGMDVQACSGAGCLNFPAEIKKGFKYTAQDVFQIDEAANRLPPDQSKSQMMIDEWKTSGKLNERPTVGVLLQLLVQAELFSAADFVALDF

[11] = biological target: caspase-1 CARD (Homo sapiens) (UniProt P29466); conditions: cited from earlier work
caspase-1 CARD (Homo sapiens), sequence (P29466 1-94): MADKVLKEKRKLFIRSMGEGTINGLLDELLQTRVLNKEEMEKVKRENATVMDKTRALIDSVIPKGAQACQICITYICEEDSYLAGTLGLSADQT

procaspase-9 CARD = biological target: T1, procaspase-9 CARD (UniProt P55211 1-92); experiment: ITC; data not shown; at different temperatures; conditions: both partners purified
T1 construct: procaspase-9, CARD
T1 sequence (looked up): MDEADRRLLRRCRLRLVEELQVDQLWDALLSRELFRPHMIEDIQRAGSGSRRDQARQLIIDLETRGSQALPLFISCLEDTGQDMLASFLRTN

NOD2-CARDa (isolated, wild type) (from UniProt Q9HC29 28-119) (domain or fragment)
Kd [1]: 1090 nM
dH [1]: -9 kcal/mol
stoichiometry N [1]: 0.61
Kd [2]: 2990 nM
dH [2]: -5.5 kcal/mol
stoichiometry N [2]: 0.99
Kd [3]: 6250 nM
dH [3]: -4.8 kcal/mol
stoichiometry N [3]: 0.85
Kd [4]: 7140 nM
dH [4]: -2.6 kcal/mol
stoichiometry N [4]: 0.78
Kd [5]: 1080 nM
dH [5]: -2 kcal/mol
stoichiometry N [5]: 0.84
Kd [6]: 880 nM
dH [6]: -4.7 kcal/mol
stoichiometry N [6]: 1.03
Kd [7]: 1410 nM
dH [7]: -7.4 kcal/mol
stoichiometry N [7]: 0.91
Kd [8]: 1100 nM
stoichiometry N [9]: 1

NOD2-CARDa E72K (isolated) (from UniProt Q9HC29 28-119) (domain or fragment)
Kd [6]: 330 nM
dH [6]: -5.2 kcal/mol
stoichiometry N [6]: 0.81

NOD2-CARDa E69K (isolated) (from UniProt Q9HC29 28-119) (domain or fragment)
Kd [6]: 720 nM
dH [6]: -3.8 kcal/mol
stoichiometry N [6]: 0.94

ASC PYD (from UniProt Q9ULZ3)
Kd (Pop1 PYD (Homo sapiens)): 4000 nM

Pelle DD (from UniProt Q05652)
Kd [10]: 500 nM

NOD2-CARDa R86A (isolated) (from UniProt Q9HC29 28-119) (domain or fragment)
Kd [6]: 810 nM
dH [6]: -4.8 kcal/mol
stoichiometry N [6]: 0.91

RIP2 CARD (from UniProt O43353)
Kd [11]: 1400 nM

B1: Apaf-1 CARD (domain or fragment, UniProt O14727 1-90, looked up)
chain: MDAKARNCLLQHREALEKDIKTSYIMDHMISDGFLTISEEEKVRNEPTQQQRAAMLIKMILKKDNDSYVSFYNALLHEGYKDLAALLHDG
notes: Apaf-1, CARD
Kd (procaspase-9 CARD): 1000 to 4000 nM
